{"source": "paper PMC12796354", "key": {"[1]": {"biological_target": "long tail fiber (gp015) of phage 7-7-1 (Agrobacterium phage 7-7-1)", "experiment": "cryo-EM structure; single particle analysis of purified virions; baseplate region, local refinements: baseplate core complex C6 3.4 Å, tail fibers C1 3.5 Å"}, "[2]": {"biological_target": "baseplate wedge 2 (gp110) of phage 7-7-1 (Agrobacterium phage 7-7-1)", "experiment": "cryo-EM structure; single particle analysis of purified virions; baseplate region, local refinements: baseplate core complex C6 3.4 Å, tail fibers C1 3.5 Å"}, "[3]": {"biological_target": "baseplate center piece protein (gp114) of phage 7-7-1 (Agrobacterium phage 7-7-1)", "experiment": "cryo-EM structure; single particle analysis of purified virions; baseplate region, local refinements: baseplate core complex C6 3.4 Å, tail fibers C1 3.5 Å"}, "[4]": {"biological_target": "decoration protein (gp002) of phage 7-7-1 (Agrobacterium phage 7-7-1)", "experiment": "cryo-EM structure; single particle analysis of purified virions in TM buffer (10 mM MgSO4, 20 mM Tris/HCl, pH 7.5); DNA-filled capsid, icosahedral symmetry, 3.4 Å"}, "[5]": {"biological_target": "tail terminator protein (gp124) of phage 7-7-1 (Agrobacterium phage 7-7-1)", "experiment": "cryo-EM structure; single particle analysis of purified virions; neck region, local refinements: portal C12 3.2 Å, collar C15 3.3 Å, neck 1 C3 3.5 Å, neck 2 + tail terminator + tail sheath + tail tube C6 3.6 Å"}, "[6]": {"biological_target": "neck 1 protein (gp119) of phage 7-7-1 (Agrobacterium phage 7-7-1)", "experiment": "cryo-EM structure; single particle analysis of purified virions; neck region, local refinements: portal C12 3.2 Å, collar C15 3.3 Å, neck 1 C3 3.5 Å, neck 2 + tail terminator + tail sheath + tail tube C6 3.6 Å"}, "[7]": {"biological_target": "portal protein (gp005) of phage 7-7-1 (Agrobacterium phage 7-7-1)", "experiment": "cryo-EM structure; single particle analysis of purified virions; neck region, local refinements: portal C12 3.2 Å, collar C15 3.3 Å, neck 1 C3 3.5 Å, neck 2 + tail terminator + tail sheath + tail tube C6 3.6 Å"}, "[8]": {"biological_target": "short tail fiber (gp008) of phage 7-7-1 (Agrobacterium phage 7-7-1)", "experiment": "cryo-EM structure; single particle analysis of purified virions; baseplate region, local refinements: baseplate core complex C6 3.4 Å, tail fibers C1 3.5 Å"}, "[9]": {"biological_target": "garland protein (gp014) of phage 7-7-1 (Agrobacterium phage 7-7-1)", "experiment": "cryo-EM structure; single particle analysis of purified virions; baseplate region, local refinements: baseplate core complex C6 3.4 Å, tail fibers C1 3.5 Å"}, "[10]": {"biological_target": "tail tube protein (gp127) of phage 7-7-1 (Agrobacterium phage 7-7-1)", "experiment": "cryo-EM structure; single particle analysis of purified virions; extended tail, C6 helical refinement, twist 27.35°, rise 35.25 Å, 3.1 Å"}, "[11]": {"biological_target": "tail tube protein (gp127) of phage 7-7-1 (Agrobacterium phage 7-7-1)", "experiment": "cryo-EM structure; single particle analysis of purified virions; neck region, local refinements: portal C12 3.2 Å, collar C15 3.3 Å, neck 1 C3 3.5 Å, neck 2 + tail terminator + tail sheath + tail tube C6 3.6 Å"}, "[12]": {"biological_target": "baseplate central hub protein (gp113) of phage 7-7-1 (Agrobacterium phage 7-7-1)", "experiment": "cryo-EM structure; single particle analysis of purified virions; baseplate region, local refinements: baseplate core complex C6 3.4 Å, tail fibers C1 3.5 Å"}, "[13]": {"biological_target": "major capsid protein (gp003) of phage 7-7-1 (Agrobacterium phage 7-7-1)", "experiment": "cryo-EM structure; single particle analysis of purified virions in TM buffer (10 mM MgSO4, 20 mM Tris/HCl, pH 7.5); DNA-filled capsid, icosahedral symmetry, 3.4 Å"}, "[14]": {"biological_target": "neck 2 protein (gp121) of phage 7-7-1 (Agrobacterium phage 7-7-1)", "experiment": "cryo-EM structure; single particle analysis of purified virions; neck region, local refinements: portal C12 3.2 Å, collar C15 3.3 Å, neck 1 C3 3.5 Å, neck 2 + tail terminator + tail sheath + tail tube C6 3.6 Å"}, "[15]": {"biological_target": "central spike protein (gp112) of phage 7-7-1 (Agrobacterium phage 7-7-1)", "experiment": "cryo-EM structure; single particle analysis of purified virions; baseplate region, local refinements: baseplate core complex C6 3.4 Å, tail fibers C1 3.5 Å"}, "[16]": {"biological_target": "baseplate wedge 1 (gp111) of phage 7-7-1 (Agrobacterium phage 7-7-1)", "experiment": "cryo-EM structure; single particle analysis of purified virions; baseplate region, local refinements: baseplate core complex C6 3.4 Å, tail fibers C1 3.5 Å"}}, "note": "Values joined by “and” are separate entries in the source; they are usually repeats but may differ in a detail not shown here. Equal entries are not always repeated.", "data": [{"substance": "long tail fiber (gp015) of phage 7-7-1 (natural protein)", "values": [{"measurement": "stoichiometry N", "setting": "[1]", "result": 3}]}, {"substance": "baseplate wedge 2 (gp110) of phage 7-7-1 (natural protein)", "values": [{"measurement": "stoichiometry N", "setting": "[2]", "result": 2}]}, {"substance": "baseplate center piece protein (gp114) of phage 7-7-1 (natural protein)", "values": [{"measurement": "stoichiometry N", "setting": "[3]", "result": 6}]}, {"substance": "decoration protein (gp002) of phage 7-7-1 (natural protein)", "values": [{"measurement": "stoichiometry N", "setting": "[4]", "result": 2}]}, {"substance": "tail terminator protein (gp124) of phage 7-7-1 (natural protein)", "values": [{"measurement": "stoichiometry N", "setting": "[5]", "result": 6}]}, {"substance": "neck 1 protein (gp119) of phage 7-7-1 (natural protein)", "values": [{"measurement": "stoichiometry N", "setting": "[6]", "result": 12}]}, {"substance": "portal protein (gp005) of phage 7-7-1 (natural protein)", "values": [{"measurement": "stoichiometry N", "setting": "[7]", "result": 12}]}, {"substance": "short tail fiber (gp008) of phage 7-7-1 (natural protein)", "values": [{"measurement": "stoichiometry N", "setting": "[8]", "result": 3}]}, {"substance": "garland protein (gp014) of phage 7-7-1 (natural protein)", "values": [{"measurement": "stoichiometry N", "setting": "[9]", "result": 2}]}, {"substance": "tail tube protein (gp127) of phage 7-7-1 (natural protein)", "values": [{"measurement": "stoichiometry N", "setting": "[10]", "result": 6}, {"measurement": "stoichiometry N", "setting": "[11]", "result": 6}]}, {"substance": "baseplate central hub protein (gp113) of phage 7-7-1 (natural protein)", "values": [{"measurement": "stoichiometry N", "setting": "[12]", "result": 3}]}, {"substance": "major capsid protein (gp003) of phage 7-7-1 (natural protein)", "values": [{"measurement": "stoichiometry N", "setting": "[13]", "result": "6 and 5"}]}, {"substance": "neck 2 protein (gp121) of phage 7-7-1 (natural protein)", "values": [{"measurement": "stoichiometry N", "setting": "[14]", "result": 6}]}, {"substance": "central spike protein (gp112) of phage 7-7-1 (natural protein)", "values": [{"measurement": "stoichiometry N", "setting": "[15]", "result": 3}]}, {"substance": "baseplate wedge 1 (gp111) of phage 7-7-1 (natural protein)", "values": [{"measurement": "stoichiometry N", "setting": "[16]", "result": 6}]}]}
